Reference: publication PMC3135652 (Journal of immunology (Baltimore, Md. : 1950), 2009)

Molecular target: T1, Recombinant truncated p115 (p115 702-962), carboxy-terminal histidine tag (human, UniProt O60763 702-962)
T1 sequence (looked up): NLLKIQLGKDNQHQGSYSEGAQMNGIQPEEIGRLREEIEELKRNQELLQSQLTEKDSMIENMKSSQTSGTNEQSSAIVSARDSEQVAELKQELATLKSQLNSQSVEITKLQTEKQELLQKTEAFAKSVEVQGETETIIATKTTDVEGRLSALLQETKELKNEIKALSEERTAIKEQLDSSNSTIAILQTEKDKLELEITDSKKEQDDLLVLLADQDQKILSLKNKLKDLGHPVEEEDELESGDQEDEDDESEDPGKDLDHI
Assay: ELISA

binding result: binds
B1: Biotinylated recombinant human MIF (natural protein, UniProt P14174 1-115, looked up)
chain: MPMFIVNTNVPRASVPDGFLSELTQQLAQATGKPPQYIAVHVVPDQLMAFGGSSEPCALCSLHSIGKIGGAQNRSYSKLLCGLLAERLRISPDRVYINYYDMNAANVGWNNSTFA
modifications: biotin (Biotin Protein Labeling Kit, Roche)
